Test results reported in the nanobody polyreactivity screen of Harvey et al. (2022).

Experiment: yeast display, Sf9 membrane polyspecificity reagent, FACS + sequencing; frameworks hold sequencing errors
Outline: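 A synthetic nanobody library was expressed on Saccharomyces cerevisiae BJ5465 by galactose induction for 36–48 hours. The library was stained for 1 hour at 4 °C with 10% biotinylated, detergent-solubilized Sf9 membrane reagent and enriched with streptavidin microbeads before FACS. Low and high (top ~1%) gates were set on anti-HA fluorescence for expression and streptavidin fluorescence for reagent binding, and each polyreactivity label reflects the gate of origin.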
With “QVQLVESGGGLVQAGGSLRLSCAASGSIFAANAMGWYRQAPGKERELVADITKSGGSTYYADSVKGRFTISRDNAKNTVYLQMNSLKPEDTAVYYCNADDTQLESFAPGHGYDYWGQGTQVTVSS” the “polyreactivity (PSR sort gate)” value was “low polyreactivity”. In the case of “QVQLVESGGGLVQAGGSLRLSCAASGSIFAANVMGWYRQAPGKERELVAVISGGGGRTFYADSVKGRFTISRDNAKNTVYLQMNSLKPEDTAVYYCAADRRDRSPYYYWGQGTQVTVSS”, the “polyreactivity (PSR sort gate)” value is reported as “high polyreactivity”. With “QVQLVESGGGLVQAGGSLRLSCAASGSIFAAYAMGWYRQAPGKERELVAAIDRGGSTDYADSVKGRFTISRDNAKNTVYLQMNSLKPEDTAVYYCAKGYDYYVRRYYYWGQGTQVTVSS” the “polyreactivity (PSR sort gate)” value was “high polyreactivity”. For “QVQLVESGGGLVQAGGSLRLSCAASGSIFAAYAMGWYRQAPGKERELVAAITSGGGTYYADSVKGRFTISRDNAKNTVYLQMNSLKPEDTAGYYCNAGNTYNRVIWPYYYWGQGTQVTVSS”, the “polyreactivity (PSR sort gate)” value was “high polyreactivity”. With “QVQLVESGGGLVQAGGSLRLSCAASGSIFAAYAMGWYRQAPGKERELVAVINSRGGITSYADSVKGRFTISRDNAKNTVYLQMNSLKPEDTAVYYFAARTWYSWRYDYWGQGTQVTVSS” the “polyreactivity (PSR sort gate)” value was “high polyreactivity”. In the case of “QVQLVESGGGLVQAGGSLRLSCAASGSIFADNTMGWSRQSPGKERELVAAITSSGRTYYADSVKGRFTISRDNAKNTVYLQMNSLKPEDTAVYYCAAVIYFHDYSPYYYWGQGTQVTVSS”, the “polyreactivity (PSR sort gate)” value is reported as “high polyreactivity”. With “QVQLVESGGGLVQAGGSLRLSCAASGSIFADYAMGWYRQAPGKERELVAAITSGGSTYYADSVKGRFTISRDNAKNTVYLQKNSLKPEDTAVYYCAADWAFSRFAYQTDIYEYWGQGTQVTVSS” the “polyreactivity (PSR sort gate)” value was “low polyreactivity”. For “QVQLVESGGGLVQAGGSLRLSCAASGSIFAFYAMGWYRQSPGKERELVAAISYNGGSTYYADSVKVRFTLSRDNAKNTVYLQMNSLEPEDTAVYYCAAYHFSAPSEYDYWGQGTQVTVSS”, the “polyreactivity (PSR sort gate)” value was “low polyreactivity”. For “QVQLVESGGGLVQAGGSLRLSCAASGSIFAGNAMGWYRQAPGKERELVAGITFGDDSTYYADSVKGRFTISRDNAKNTVYLQMNSLKPEDTAVYYCATDLHPYNYYFYHYWVDAAYDYWGQGTQVTVSS”, the “polyreactivity (PSR sort gate)” value was “low polyreactivity”. For “QVQLVESGGGLVQAGGSLRLSCAASGSIFAHYAMGWYRQAPGKARELVAAISRGGGSTYYSDSVKGRFTISRDNAKNTVYLQMNSLKPEDTAVYYCAVVRSYRGINDYWGQGTQVTVTS”, the “polyreactivity (PSR sort gate)” value was “low polyreactivity”. For “QVQLVESGGGLVQAGGSLRLSCAASGSIFAKNAMGWYRQAPGKERELVAGIDFSGGSTYYADSVKGRFTISRDNAKNTVYLQMNSLKPEDTAVDYCAADWAYKYELDYWGQGTQVTVSS”, the “polyreactivity (PSR sort gate)” value was “low polyreactivity”. In the case of “QVQLVESGGGLVQAGGSLRLSCAASGSIFAKYAMGWYRQAPGKEREFVAAIRASGGRTYYADSVKGRFTISRDNAKNTVYLQMNSLKPEDTAVYYCAAHLYSSRSDYDGPRSRRNYWGQGTQVTVSS”, the “polyreactivity (PSR sort gate)” value is reported as “high polyreactivity”. With “QVQLVESGGGLVQAGGSLRLSCAASGSIFAKYGMGWYRQAPGKEREFVAAISKSGGITYYADSVKGRFTISRDNAKNTVYLQMNSLKPEDTAVYYCADSYVSYRKRDDYWGQGTQVTVSS” the “polyreactivity (PSR sort gate)” value was “high polyreactivity”. For “QVQLVESGGGLVQAGGSLRLSCAASGSIFALYAMGWYRQAAGKERELVAAITKGGGSTYYADSVKGRFTISRDNAKNTVYLQMNSLKPEDTAVYYCAARGRYSAPDYGYWGQGTQVTVSS”, the “polyreactivity (PSR sort gate)” value was “high polyreactivity”. With “QVQLVESGGGLVQAGGSLRLSCAASGSIFALYAMGWYRQAPGKERELVAAISNTGGSTYYADSVKGRFTISRDNAKNTVYLQMNSLKPEDTAVYYCAARKARSSPRYYYWGQGTQVTVSS” the “polyreactivity (PSR sort gate)” value was “high polyreactivity”. With “QVQLVESGGGLVQAGGSLRLSCAASGSIFALYAMGWYRQAPGKERELVAAISRRGGRTYYADSVKGRFTISRDNAKNTVYLQMNSLIPEDTAVYYCNARGYNVPHPNRYDYWGQGTQVTVSS” the “polyreactivity (PSR sort gate)” value was “high polyreactivity”. With “QVQLVESGGGLVQAGGSLRLSCAASGSIFAPNAMGWYRQAPGKERELVARISRTGGSTNYADSVKGRFTISRDNAKNTVYLQMNSLKPEDTAVYYCNTQYSYSSAPPFWYTQMYYWGQGTQVTVSS” the “polyreactivity (PSR sort gate)” value was “high polyreactivity”. For “QVQLVESGGGLVQAGGSLRLSCAASGSIFAPYAMGWYRQAPGKERELVATISSIGTSTYYADSVKGRFTISRDNAKNTVYLQMNSLKPEDTAVYYCAADQSGGYPDNYWGQGTQVTVSS”, the “polyreactivity (PSR sort gate)” value was “low polyreactivity”. With “QVQLVESGGGLVQAGGSLRLSCAASGSIFAQNAMGWYRQAPGKERELVAAITSGGSTYYADSVKGRFTISRDNAKNTVYLQMNSLKPEDTAVYYCAARGWGPFYQYYYLGQGTQVTVSS” the “polyreactivity (PSR sort gate)” value was “high polyreactivity”. With “QVQLVESGGGLVQAGGSLRLSCAASGSIFAQYTMGWYRQAPGKERELVAVISFRGGSTYYADSVKGRFTISRDNAKNTVYLQMNSLKPEDTAVYYCATVGTYPGYGEFDYWGQGTQVTVSS” the “polyreactivity (PSR sort gate)” value was “low polyreactivity”. For “QVQLVESGGGLVQAGGSLRLSCAASGSIFARFAMGWYRQAPGKERELVAAISGRGGSTYYADSVKGRFTISRDNAKNTVYLQMNSLKPEDTAVYYCNAVGHTSIRRALDILDYWGQVTQVTVSS”, the “polyreactivity (PSR sort gate)” value was “high polyreactivity”. For “QVQLVESGGGLVQAGGSLRLSCAASGSIFARNAMGWSRQAPGKERELVAGISRRGGSTYYADSVKGRFTISRDNAKNTVYLQMNSLKPEDTAVYYCNAVVYSPPYDYWGQGTQVTVSS”, the “polyreactivity (PSR sort gate)” value was “high polyreactivity”. With “QVQLVESGGGLVQAGGSLRLSCAASGSIFARNAMGWYRQAPGKERELVAAISWSGGRTYYADSVKGRFTISRDNAKNTVYLQMNSLKPEDTAVYYCATDTWWGQGTQVTVSS” the “polyreactivity (PSR sort gate)” value was “high polyreactivity”. With “QVQLVESGGGLVQAGGSLRLSCAASGSIFARNAMGWYRQAPGKERELVASITSNSGNTYYADSVKGRFTISRDNAKNTVYLQMNSLKPEDTAVYYCAADQLSDEYDYWGQGTQVTVSS” the “polyreactivity (PSR sort gate)” value was “high polyreactivity”. For “QVQLVESGGGLVQAGGSLRLSCAASGSIFARYAMGWYIQAPGKEREFVAAISRSGGSTYYADSVKGRFTISRDNAKNTVYLQMNSLKPEDTAVYYCAARGGTKYDYWGQGTQVTVSS”, the “polyreactivity (PSR sort gate)” value was “high polyreactivity”. With “QVQLVESGGGLVQAGGSLRLSCAASGSIFARYAMGWYRQAPGKERELVAAISSDGSTYYADSVKGRFTISRDNEKNTVYLQMNSLKPEDTAVYYCNTQFRYPQKYDYWGQGTQVTVSS” the “polyreactivity (PSR sort gate)” value was “high polyreactivity”. In the case of “QVQLVESGGGLVQAGGSLRLSCAASGSIFARYAMGWYRQAPGKERELVAAISSNSASTYYADSVKGRFTSSRDNAKNTVYLQMNSLKPEDTAVDYCATAYRSDWLNDYWGQGTQVTVSS”, the “polyreactivity (PSR sort gate)” value is reported as “low polyreactivity”. In the case of “QVQLVESGGGLVQAGGSLRLSCAASGSIFARYAMGWYRQAPGKERELVAALSGSGASTYYADSVKGRFTISRDNAKNTVYLQMNSLKPEDTAVYYCARPFLRRPTYRFETGYGYWGQGTQVTVSS”, the “polyreactivity (PSR sort gate)” value is reported as “high polyreactivity”. With “QVQLVESGGGLVQAGGSLRLSCAASGSIFARYTMGWYRQAPGKERELVARITSSGGSTYYADSVKGRFTISRDNAKNTVYLQMNSLKPEDTAVYYCAARYRRYVRFQGDYWGQGTQVTVSS” the “polyreactivity (PSR sort gate)” value was “high polyreactivity”. For “QVQLVESGGGLVQAGGSLRLSCAASGSIFASNAMGWYRQAPGKEREFVAAIRYSAGITYYADSVKGRFTISRDNAKNTVYLQMNSLKPEDTAVYFCSAYGWVNRWYSRFDYWGQGTQVTVSS”, the “polyreactivity (PSR sort gate)” value was “high polyreactivity”. For “QVQLVESGGGLVQAGGSLRLSCAASGSIFASNAMGWYRQAPGKERELVAAITTSGDSTYYADSVKGRFTISRDHAKTTVYFQMNSLKPEDTAVYYCATDKGWGLMDSWGQGTQVTVSS”, the “polyreactivity (PSR sort gate)” value was “low polyreactivity”. In the case of “QVQLVESGGGLVQAGGSLRLSCAASGSIFASNAMGWYRQEPGKEREFVAAITWRTDRTYYADSVKGRFTISRDNEKNTVYLQMNSLKPEDTAGYYCAADTWFYRFYYWGQGTQVTVSS”, the “polyreactivity (PSR sort gate)” value is reported as “high polyreactivity”.
